According to patent US20110229922:

T1: MR121 peptide C QTLEFLKIP W
T1 sequence: QTLEFLKIP

T2: Amylin FRET peptide GSNTYGKRNA
T2 sequence: GSNTYGKRNA

T3: MR121 peptide C QELEFLKI W
T3 sequence: QELEFLKI

T4: TMEM 27 A FRET peptide RINNAFFLND
T4 sequence: RINNAFFLND

T5: APP WT FRET peptide SEVKMDAEFR
T5 sequence: SEVKMDAEFR

T6: MR121 peptide C QTLEFLKIPS W
T6 sequence: QTLEFLKIPS

T7: MR121 peptide C QTLEFLKI W
T7 sequence: QTLEFLKI

T8: APP SW FRET peptide SEVNLDAEFR
T8 sequence: SEVNLDAEFR

B1: BACE1 (protein)
chain: TQHGIRLPLRSGLGGAPLGLRLPRETDEEPEEPGRRGSFVEMVDNLRGKSGQGYYVEMTVGSPPQTLNILVDTGSSNFAVGAAPHPFLHRYYQRQLSSTYRDLRKGVYVPYTQGKWEGELGTDLVSIPHGPNVTVRANIAAITESDKFFINGSNWEGILGLAYAEIARPDDSLEPFFDSLVKQTHVPNLFSLQLCGAGFPLNQSEVLASVGGSMIIGGIDHSLYTGSLWYTPIRREWYYEVIIVRVEINGQDLKMDCKEYNYDKSIVDSGTTNLRLPKKVFEAAVKSIKAASSTEKFPDGFWLGEQLVCWQAGTTPWNIFPVISLYLMGEVTNQSFRITILPQQYLRPVEDVATSQDDCYKFAISQSSTGTVMGAVIMEGFYVVFDRARKRIGFAVSACHVHDEFRTAAVEGPFVTLDMEDCGYNIPQTDESTLMTIAY
B2: BACE2 enzyme ectodomain (enzyme)
chain: AAPELAPAPFTLPLRVAAATNRVVAPTPGPGTPAERHADGLALALEPALASPAGAANFLAMVDNLQGDSGRGYYLEMLIGTPPQKLQILVDTGSSNFAVAGTPHSYIDTYFDTERSSTYRSKGFDVTVKYTQGSWTGFVGEDLVTIPKGFNTSFLVNIATIFESENFFLPGIKWNGILGLAYATLAKPSSSLETFFDSLVTQANIPNVFSMQMCGAGLPVAGSGTNGGSLVLGGIEPSLYKGDIWYTPIKEEWYYQIEILKLEIGGQSLNLDCREYNADKAIVDSGTTLLRLPQKVFDAVVEAVARASLIPEFSDGFWTGSQLACWTNSETPWSYFPKISIYLRDENSSRSFRITILPQLYIQPMMGAGLNYECYRFGISPSTNALVIGATVMEGFYVIFDRAQKRVGFAASPCAEIAGAAVSEISGPFSTEDVASNCVPAQSLSE
modifications: N-terminal Met

Columns and labels:
[1] = target: dabsyl-…-LucY (TMEM27 FRET peptide)
[2] = test system: T1, MR121 peptide C QTLEFLKIP W
[3] = test system: MR121 peptide C QTLEFLK W
[4] = test system: dabsyl-QTLEFLKIPS-LucY (TMEM27 FRET peptide)
[5] = test system: T2, Amylin FRET peptide GSNTYGKRNA
[6] = test system: T3, MR121 peptide C QELEFLKI W
[7] = test system: T4, TMEM 27 A FRET peptide RINNAFFLND
[8] = test system: T5, APP WT FRET peptide SEVKMDAEFR
[9] = test system: T6, MR121 peptide C QTLEFLKIPS W
[10] = test system: dabsyl-NSLEFLGIQP-lucifer yellow (ACE2 FRET peptide)
[11] = test system: T7, MR121 peptide C QTLEFLKI W
[12] = test system: MR121 peptide C TLEFLKI W
[13] = test system: T8, APP SW FRET peptide SEVNLDAEFR

Protein | FRET peptide cleavage activity [1] | Relative activity [2] | Relative activity [3] | FRET peptide cleavage activity [4] | FRET peptide cleavage efficiency [5] | Relative activity (MR121 peptide C QTLEF W) | Relative activity [6] | FRET peptide cleavage efficiency [7] | Relative activity (MR121 peptide C LEFLKI W) | FRET peptide cleavage efficiency [8] | Relative activity [9] | FRET peptide cleavage efficiency [10] | Relative activity [11] | Relative activity [12] | FRET peptide cleavage efficiency [13] | Relative activity (MR121 peptide C QTLEFL W)
B1 | BACE1 had insignificant activity against this peptide | – | – | – | – | – | – | – | – | – | – | – | – | – | – | –
B2 | – | 75 | 62 | BACE2 had a high activity against this sequence | cleaved less efficiently | 21 | 100 | cleaved less efficiently | 24 | cleaved less efficiently | 91 | cleaved by BACE2 with an efficiency greater than that of the TMEM27 substrate | 96 | 28 | cleaved less efficiently | 32
